The record followed here is EP4628892A1 (Korea Research Institute of Bioscience and Biotechnology, dated 2025).

The chains are these.
B1: H6HE2L antibody (antibody, human IgG1, kappa, V domains shown)
VH: QMQLVQSGGGLEQPGRSLRLSCVTSGFNFNDYAMHWVRQAPGKGLEWVSGISWNSGAIGYADSVKGRFTVSRDNSKNSLYLQMNSLRAEDTAVYYCARDYNYETSGYYHGFDNWGQGTLVTVSS
VL: DIQMTQSPSSVSASVGDRVTITCRASQGISRWLSWYQQKPGKAPKLLIYAASNLQSGVPLRFSGSGSGTDFTLTINSLQPEDSATYYCQQTNNFPYTFGQGTKVEIKR
notes: Optimized from CSA108
B2: CSA123 antibody (antibody, human IgG1, kappa, V domains shown)
VH: QMQLVQSGAEVKKPGASVKVSCKVSGYTLSELSIHWVRQAPGKGLEWMGGFDPEDDETVYAQKFQGRVTLTDDTSTDTAYMELSSLRSEDTAVYYCARDLGYLTSGNYYDAFDIWGRGTMITVSS
VL: B1 VL with G28D, S30N, S34A, N53R, Y96R, K103R, V104L
notes: also called anti-NgR1 antibody CSA123
B3: S3 antibody (antibody, human IgG1, kappa, V domains shown)
VH: B2 VH with D110N, D113G
VL: B1 VL with G28D, S30N, S34A, N53R, Y96R, K103R, V104L
notes: Optimized from CSA123
B4: C1HE2E6 antibody (antibody, human IgG1, kappa, V domains shown)
VH: B1 VH with T104I, H109Y
VL: B1 VL with S67F
notes: Optimized from CSA108
B5: CSA108 antibody (antibody, human IgG1, kappa, V domains shown)
VH: B1 VH with N101Y, H109Y
VL: B1 VL with S34A
notes: also called anti-NgR1 antibody CSA108
B6: D11 antibody (antibody, human IgG1, kappa, V domains shown)
VH: B2 VH with P53S, I114F
VL: B1 VL with G28D, S30N, S34A, N53R, Y96R, K103R, V104L
notes: Optimized from CSA123
B7: G8 antibody (antibody, human IgG1, kappa, V domains shown)
VH: B2 VH with T28P, P53S, D113G
VL: B1 VL with G28D, S30N, S34A, N53R, Y96R, K103R, V104L
notes: Optimized from CSA123
B8: S6 antibody (antibody, human IgG1, kappa, V domains shown)
VH: B2 VH with E31G, P53S
VL: B1 VL with G28D, S30N, S34A, N53R, Y96R, K103R, V104L
notes: Optimized from CSA123

Substitutions are numbered along the chain they refer to.

The target in the assay is T1, hNgR1-his (human, UniProt Q9BZR6 27-447, limits assumed).
T1 construct: Soluble antigen flowed over antibodies captured on Protein A chips; also called antigen protein (hNgR1-his); the antigen; not shown: histidine tag
T1 sequence (looked up): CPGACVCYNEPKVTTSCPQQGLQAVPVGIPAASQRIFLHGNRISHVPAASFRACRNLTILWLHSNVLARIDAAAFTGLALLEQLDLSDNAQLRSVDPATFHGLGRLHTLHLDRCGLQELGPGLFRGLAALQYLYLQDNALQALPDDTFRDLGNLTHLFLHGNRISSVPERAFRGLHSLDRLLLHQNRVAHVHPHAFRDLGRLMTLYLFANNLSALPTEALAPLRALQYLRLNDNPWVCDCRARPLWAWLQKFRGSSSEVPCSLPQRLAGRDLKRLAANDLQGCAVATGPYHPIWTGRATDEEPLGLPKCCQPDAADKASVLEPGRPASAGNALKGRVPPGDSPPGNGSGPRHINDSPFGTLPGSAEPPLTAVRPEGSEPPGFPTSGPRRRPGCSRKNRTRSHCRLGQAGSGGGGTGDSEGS
As to the kind of experiment: SPR, Biacore T200; IgG1 captured on Protein A chip, hNgR1-his flowed at different concentrations.
Turning to B1, the Kd worked out at 1.69 nM.
The same measure for B2: 31.5 nM; for B3: 5.84 nM.
B4: binding was put at a Kd of 0.194 nM.
B5 had a Kd of 23.3 nM.
The molecule B6 returned a Kd of 5.33 nM.
On to B7, for which the affinity, expressed as Kd, was 4.15 nM.
The same measure for B8: 5.51 nM.
